Read-outs that look alike come from different tables or passages of the source.
Tests used:
[1] = target: β-synuclein (endogenous) (mouse (endogenous in C57BL/6 brain)) (UniProt Q91ZZ3); assay: co-IP; reverse co-IP from dephosphorylated wild-type mouse brain lysate (neither heated nor dialyzed) with antibodies for synaptophysin, β-synuclein or apoA1; blot probed with Dako Tau antibody, the three Tau isoforms quantified with ImageJ
[2] = target: synaptophysin (endogenous) (mouse (endogenous in C57BL/6 brain)) (UniProt Q62277); assay: as above
UniProt Q62277, sequence (Q62277 whole entry): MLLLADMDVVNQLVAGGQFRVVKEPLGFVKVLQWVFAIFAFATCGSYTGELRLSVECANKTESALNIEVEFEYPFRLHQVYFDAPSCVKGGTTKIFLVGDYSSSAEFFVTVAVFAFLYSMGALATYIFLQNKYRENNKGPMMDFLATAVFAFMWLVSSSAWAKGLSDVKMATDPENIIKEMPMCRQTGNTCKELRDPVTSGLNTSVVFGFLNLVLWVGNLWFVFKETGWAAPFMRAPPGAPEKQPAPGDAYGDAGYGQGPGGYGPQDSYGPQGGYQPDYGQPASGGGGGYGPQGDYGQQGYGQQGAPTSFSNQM

[3] = target: β-synuclein (endogenous) (mouse (endogenous in C57BL/6 brain)) (UniProt Q91ZZ3); assay: as above; remark: listed apart in the source
[4] = target: recombinant 2N Tau (Mtau2310, 2N4R, with N-terminal GST tag) (murine); assay: ELISA; plates coated overnight at 4 °C with recombinant 0N, 1N or 2N Tau at 10 μg/ml in PBS, blocked with 3% BSA; recombinant β-synuclein and synaptophysin at 10 μg/ml in PBS for 1 h at room temperature, detected with anti-V5; recombinant apoA1 detected with an anti-apoA1 antibody; absorbance at 450 nm after subtraction of BSA-coated wells
[5] = target: recombinant 1N Tau (Mtau210, 1N4R, with N-terminal GST tag) (murine); assay: as above

| ratio to 0N Tau (Western blot of the reverse IP) [1] | ratio to 0N Tau (Western blot of the reverse IP) [2] | ratio to 0N Tau (Western blot of the reverse IP) [3] | ratio to 0N Tau (ELISA absorbance) [4] | ratio to 0N Tau (ELISA absorbance) [5] | Substance |
| --- | --- | --- | --- | --- | --- |
| 0.897 | 0.97 | 0.41 | – | – | 1N Tau (endogenous) (natural protein) |
| 0.5 | 0.93 | 0.37 | – | – | 2N Tau (endogenous) (natural protein) |
| – | – | – | 0.26 | 0.63 | recombinant β-synuclein (C-terminal His6 and V5 tag) (from UniProt Q91ZZ3 1-133) (natural protein) |
